B1: ERFE 18-mer peptide 121-138 (peptide, UniProt Q4G0M1 121-138, looked up)
peptide: GPPGPIIPPEALLKEFQL
notes: human erythroferrone (ERFE), residues 121-138; source: synthetic peptide (GenScript, ≥70% purity)
B2: ERFE 18-mer peptide 73-90 (peptide, UniProt Q4G0M1 73-90, looked up)
peptide: AHSVDPRDAWMLFVRQSD
notes: human erythroferrone (ERFE), residues 73-90; source: synthetic peptide (GenScript, ≥70% purity)
B3: ERFE N terminus ΔCollagen, 43-148 del109-125 (bacterial) (domain or fragment, human, UniProt Q4G0M1 43-148, looked up)
chain: EPPPGNELPRGPGESRAGPAARPPEPTAERAHSVDPRDAWMLFVRQSDKGVNGKKRSRGKAKKLKFIIPPEALLKEFQLLLKGAVRQRE
notes: also called bacterial ΔCollagen N terminus; source: E. coli Rosetta2(DE3)pLysS, purified (Ni-NTA, TEV cleavage, reverse IMAC); not shown: His6, N-terminal, cleaved; MBP, N-terminal, cleaved
B4: BMP2/6 heterodimer (ligand)
chain 1: QAKHKQRKRLKSSCKRHPLYVDFSDVGWNDWIVAPPGYHAFYCHGECPFPLADHLNSTNHAIVQTLVNSVNSKIPKACCVPTELSAISMLYLDENEKVVLKNYQDMVVEGCGCR
chain 2: SASSRRRQQSRNRSTQSQDVARVSSASDYNSSELKTACRKHELYVSFQDLGWQDWIIAPKGYAANYCDGECSFPLNAHMNATNHAIVQTLVHLMNPEYVPKPCCAPTKLNAISVLYFDDNSNVILKKYRNMVVRACGCH
notes: bone morphogenetic protein 2 chain of the BMP2/6 heterodimer; bone morphogenetic protein 6 chain of the BMP2/6 heterodimer; also called heterodimer of BMP2/6; source: bought: RND Systems #7145-BP-010/CF; copies: 1 + 1
B5: BMP2 homodimer (ligand, UniProt P12643 283-396, looked up)
chain: B4 chain 1
notes: bone morphogenetic protein 2; source: bought: RND Systems #355-BM-010/CF
B6: BMP6 homodimer (ligand, UniProt P22004 375-513, looked up)
chain: B4 chain 2
notes: bone morphogenetic protein 6; source: bought: RND Systems 507-BP-020/CF
B7: ERFE 18-mer peptide 97-114 (peptide, UniProt Q4G0M1 97-114, looked up)
peptide: KRSRGKAKKLKFGLPGPP
notes: also called cationic 18-mer peptide; source: synthetic peptide (GenScript, ≥70% purity)
B8: ERFE 18-mer peptide 133-150 (peptide, UniProt Q4G0M1 133-150, looked up)
peptide: LKEFQLLLKGAVRQRERA
notes: human erythroferrone (ERFE), residues 133-150; source: synthetic peptide (GenScript, ≥70% purity)

What was measured:
[1] = target: B6; test: SPR; scan of overlapping synthetic 18-mer peptides of the ERFE N terminus over BMP2/6, BMP2 or BMP6; 180 s injection, then buffer wash; settings: both partners purified
[2] = target: B4; test: as above; settings: both partners purified
[3] = target: B5; test: as above; settings: both partners purified
[4] = target: B6; test: SPR; Biacore T200, CM5 chip; BMP2, BMP6 or BMP2/6 immobilised by amine coupling (50 μg/ml); purified bacterial untagged ERFE N-terminal variants or synthetic 53-mer segments as analyte; HBS-EP pH 7.4, 50 μl/min; KD = koff/kon at five concentrations; settings: both partners purified
[5] = target: B4; test: as above; settings: both partners purified
[6] = target: B5; test: as above; settings: both partners purified
[7] = target: B6; test: as above; settings: both partners purified; remark: listed apart in the source
[8] = target: B4; test: as above; settings: both partners purified; remark: listed apart in the source
[9] = target: B5; test: as above; settings: both partners purified; remark: listed apart in the source
[10] = target: T1, Full-length ERFE (erythroferrone), 43-354, FLAG-tagged (human, UniProt Q4G0M1 43-354); test: SPR; Biacore T200, CM5 chip; BMP2, BMP6 or BMP2/6 immobilised by amine coupling (50 μg/ml); FLAG-ERFE variants made in HEK293T as analyte; HBS-EP (0.15 M NaCl, 3 mM EDTA, 0.005% P20, 0.01 M Hepes pH 7.4), 50 μl/min; KD = koff/kon at five concentrations; the paper calls the constants avidities where binding is presumed multivalent; settings: one partner purified
T1 construct: human erythroferrone (ERFE), mature molecule, residues 43-354; pcDNA3.1(+) backbone; Predominantly a hexamer at low concentration on native PAGE, a smear of 117-460 kDa at high concentration; also called Full length, 43-354; WT, 43-354; source: HEK293T, transiently transfected, in supernatant; not shown: FLAG, N-terminal, kept

[11] = target: T1, Full-length ERFE (erythroferrone), …; test: as above; settings: one partner purified; remark: listed apart in the source

Binder	binding result [1]	binding result [2]	binding result [3]	Kd [10]	koff [11]	other results
B1	binds	binds	binds			
B2	binds	binds	binds			
B3						Kd [4]: 0.756 nM; pKd (-log Kd) [4]: 9.2; Kd [5]: 50.1 nM; pKd (-log Kd) [5]: 7.3; Kd [6]: 3.13 nM; pKd (-log Kd) [6]: 8.7; koff [7]: 0.0085 s⁻¹; log kd [7]: -2.17; koff [8]: 0.0052 s⁻¹; log kd [8]: -2.29; koff [9]: 0.0056 s⁻¹; log kd [9]: -2.29
B4				0.277 nM	0.00022 s⁻¹	
B5				0.445 nM	9e-05 s⁻¹	
B6				0.817 nM	0.00022 s⁻¹	
B7	binds	binds	binds			
B8	binds	binds	binds			

From PMC10692919, “Characterization of erythroferrone structural domains relevant to its iron-regulatory function” (The Journal of Biological Chemistry, 2023)
